We go through one molecule from US20210260212A1 (MAGENTA THERAPEUTICS, published 2021).

The experiment concerns the target T1, human CD2 on the surface of cells (MOLT-4 human T lymphoblast cells); primary human T-cells; primary human NK … (human, UniProt P06729 25-351).
T1 sequence: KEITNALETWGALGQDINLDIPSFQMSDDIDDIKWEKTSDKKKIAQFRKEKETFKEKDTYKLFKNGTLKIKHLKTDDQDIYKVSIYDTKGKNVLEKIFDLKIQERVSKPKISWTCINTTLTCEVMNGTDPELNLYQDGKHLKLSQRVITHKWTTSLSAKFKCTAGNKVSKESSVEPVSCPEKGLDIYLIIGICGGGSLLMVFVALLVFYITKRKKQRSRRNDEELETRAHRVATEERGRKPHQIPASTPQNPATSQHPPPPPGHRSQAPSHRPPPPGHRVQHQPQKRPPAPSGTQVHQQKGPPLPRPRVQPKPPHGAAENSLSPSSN
The experiment can be described thus: cell-based or functional assay.

B1: anti-CD2-amanitin ADC: RPA 2.10 conjugated to amanitin with a cleavable linker, interchain, average drug-to-antibody ratio of 6 (other)
heavy: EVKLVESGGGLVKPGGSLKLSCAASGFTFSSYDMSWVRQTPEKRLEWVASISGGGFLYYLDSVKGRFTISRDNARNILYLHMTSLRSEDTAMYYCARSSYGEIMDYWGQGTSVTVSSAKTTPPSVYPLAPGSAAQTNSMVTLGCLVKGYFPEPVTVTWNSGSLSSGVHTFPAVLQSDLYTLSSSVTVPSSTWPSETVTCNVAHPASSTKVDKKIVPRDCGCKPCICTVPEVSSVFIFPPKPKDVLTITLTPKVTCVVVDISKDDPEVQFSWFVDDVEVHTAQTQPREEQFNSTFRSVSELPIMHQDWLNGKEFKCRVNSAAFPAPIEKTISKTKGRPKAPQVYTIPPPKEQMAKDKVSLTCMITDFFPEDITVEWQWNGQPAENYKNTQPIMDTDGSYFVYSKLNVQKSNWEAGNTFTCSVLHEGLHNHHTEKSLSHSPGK
light: DILLTQSPAILSVSPGERVSFSCRASQRIGTSIHWYQQRTTGSPRLLIKYASESISGIPSRFSGSGSGTDFTLSINSVESEDVADYYCQQSHGWPFTFGGGTKLEIERADAAPTVSIFPPSSEQLTSGGASVVCFLNNFYPKDINVKWKIDGSERQNGVLNSWTDQDSKDSTYSMSSTLTLTKDEYERHNSYTCEATHKTSTSPIVKSFNRNEC
Regarding B1, the “viability of primary human NK cells after 4 days (CellTiter-Glo), in vitro NK-cell killing assay, IC50” value was found to be 5.2 pM.
